Source: article PMC4094278, “The Dictyostelium discoideum RACK1 orthologue has roles in growth and development” (Cell Communication and Signaling : CCS, 2014)

Target: the molecule itself
Assay: cross-linking; 5-10 μg/100 μl recombinant protein in 1 x PBS, pH 7.4, room temperature, 0.001% glutaraldehyde, 5, 10 and 20 min, stopped with 0.1 M glycine; SDS-PAGE and western blot with anti-DdRACK1 antibodies; dimers and oligomers also seen without glutaraldehyde

B1: recombinant DdRACK1 full length protein cleaved from the GST part (natural protein, D. discoideum, UniProt P46800 1-329, looked up)
chain: MEQQKAPQVTYLEVGSLVGHNGFVTSIAVSPENPDTIISSSRDKTVMVWQLTPTDATSPGKAHRSLKGHSHFVQDVVISHDGQFALSGSWDNTLRLWDITKGVSTRLFKGHTQDVMSVAFSSDNRQIISGSRDATIKVWNTLGECKFTLEGPEAHQDWVSCIRFSPNTPTIVSGSWDNKVKIWDIKSFKCNHTLTDHTGYVNTVTISPDGSLCASGGKDTFACLWELSSGKPLYKLEARNTINALAFSPNKYWLSAATDDKIIIWDLLTKQVLAEIVPEVKEQAFDSKKKKESKPKAPACLSLAWSADGSVLYAGYNDGLIRVYKSSSQ
notes: D. discoideum RACK1 (GpbB), 329 amino acids; Cloned in pGEX-4T-1; cleaved with thrombin; also called GpbB; D. discoideum RACK1; source: E. coli XL1 Blue, purified (GST-Sepharose, thrombin cleavage, DE-52 anion exchange)
B1: binds.
